Results reported in patent publication US20180280504A1, “GLYCAN-INTERACTING COMPOUNDS AND METHODS OF USE” (SIAMAB THERAPEUTICS, INC., priority 2014, published 2018).

Columns and labels:
[1] = Glycan array, 9-O-acetylated AcSTn; type: binding; details: glycan microarray, Cy3 anti-mouse IgG
Procedure: Optimized glycan arrays comprise 71 chemically synthesized and well-defined glycans, most of which comprise Neu5Ac and Neu5Gc glycan pairs.
300 ml of epoxy blocking buffer is prepared by combining 15 ml of 2 M Tris buffer (pH 8) with 0.9 ml of 16.6 M ethanolamine and 284.1 ml of distilled water. The solution was brought to a final pH of 9.0 with HCl. The solution is filtered using a 0.2 μM nitrocellulose membrane. The epoxy buffer solution as well as 1 L of distilled water are pre-warmed to 50° C. Glass slides are arranged in a slide holder and quickly submerged in a staining tub with the warmed epoxy blocking buffer. Slides are incubated in the epoxy blocking buffer for 1 hour at 50° C. with periodic shaking to deactivate epoxy binding sites. Next, slides are rinsed and blocked with PBS with 1% OVA at 25° C. for one hour. Serum samples with polyclonal antibodies (1:1000) or purified monoclonal antibodies (1 ug/mL), are diluted in PBS with 1% OVA and added to the glycan array for one hour at 25° C. After extensive washing, binding of antibodies are detected by incubating glycan microarray slides with Cy3-conjugated anti-mouse IgG (Jackson Immunoresearch, West Grove, Pa.) for one hour. Slides are then washed extensively, dried and scanned with a Genepix 4000B scanner (Laser at 100%; gain at 350; 10 μm pixels). […]

[2] = E3-STn allograft model, second round study, average body weight
Procedure: 50 female Balb/cmice were inoculated with E3-STn cells to cause STn-expressing tumor formation when they were 5 weeks old. Mice were housed in individually ventilated microisolator cages, and maintained under pathogen-free conditions with irradiated feed and autoclaved water. […] Beginning on the first day of the study, body weight and tumor volumes were recorded twice weekly. 33 mice with mean tumor volume between 100 and 150 mm^3 were selected for randomization.
The average weight of mice in each treatment group was also determined on days 1, 5, 8, 12, 15,19, 22, 26, 29, 33, 36, 40, 43, 47 and 50 following the first administration of each test article (see the following Table). The percent gain or loss over initial weight values is listed in parentheses.

B1: 18C7: anti-STn mouse monoclonal, IgG2c κ, from mouse #4436; VH SEQ ID NO: 4, VL SEQ ID NO: 5 (antibody, V domains shown)
VH: QVTLKESGPGILQPSQTLSLTCSFSGFSLSTFGMGVGWIRQPSGKGLEWLAHIWWDDDKYYNPALKSRLTISKDTSKNQVFLKIANVDTADTATYYCARIAYYYGSERDYWGQGTTLTVSS
VL: QIVLTQSPAIMSASPGEKVTMTCSASSSISYMHWYHQKPGTSPKRWIYDTSKLASGVPARFSGSGSGTSYSLTISSMEAEDAATYYCHQRSSYTFGGGTKLEIKR
- mean fluorescence intensity, Neu5,9Ac2-α2,6-GalNAc [1]: about 4,500

B2: 7G9: anti-STn mouse monoclonal, IgG2b κ, from mouse #4407; VH SEQ ID NO: 12, VL SEQ ID NO: 9 (antibody, V domains shown)
VH: QVQLKESGPGLVAPSQNLSITCTVSGFSLTSYGVNWVRQPPGKGLEWLGVIWGDGSTNYHSALISRLIISKENSKSQVFLKLNSLQTNDTATYYCTKGFVYWGQGTLVTVSA
VL: QIVLTQSPAIMSASPGEKVTMTCSASSSVSYMHWYQQKSGTSPKRWIFDTSKLASGVPARFSGSGSGTSYSLTISSMEAEDAATYYCQQWSSNLLTFGAGTKLELK
- Average Weight ([2]; day 1 of study): 18.3 g
- Average Weight ([2]; day 5 of study): 18.7 g
- percent gain or loss over initial weight ([2]; day 5 of study): (2.4) %
- Average Weight ([2]; day 8 of study): 19.4 g
- percent gain or loss over initial weight ([2]; day 8 of study): (6.5) %
- Average Weight ([2]; day 12 of study): 20.1 g
- percent gain or loss over initial weight ([2]; day 12 of study): (10.1) %
- Average Weight ([2]; day 15 of study): 20.4 g
- percent gain or loss over initial weight ([2]; day 15 of study): (12.0) %
- Average Weight ([2]; day 19 of study): 20.9 g
- percent gain or loss over initial weight ([2]; day 19 of study): (14.3) %
- Average Weight ([2]; day 22 of study): 20.8 g
- percent gain or loss over initial weight ([2]; day 22 of study): (14.1) %
- Average Weight ([2]; day 26 of study): 21.5 g
- percent gain or loss over initial weight ([2]; day 26 of study): (17.8) %
- Average Weight ([2]; day 29 of study): 22.1 g
- percent gain or loss over initial weight ([2]; day 29 of study): (21.1) %
- Average Weight ([2]; day 33 of study): 22.2 g
- percent gain or loss over initial weight ([2]; day 33 of study): (21.4) %
- Average Weight ([2]; day 36 of study): 22.1 g
- percent gain or loss over initial weight ([2]; day 36 of study): (21.0) %
- Average Weight ([2]; day 40 of study): 22.8 g
- percent gain or loss over initial weight ([2]; day 40 of study): (25.0) %
- Average Weight ([2]; day 43 of study): 22.9 g
- percent gain or loss over initial weight ([2]; day 43 of study): (25.4) %
- Average Weight ([2]; day 47 of study): 22.8 g
- percent gain or loss over initial weight ([2]; day 47 of study): (25.0) %
- Average Weight ([2]; day 50 of study): 23.8 g
- percent gain or loss over initial weight ([2]; day 50 of study): (30.2) %
- percent gain in weight as compared to vehicle control ([2]; second round study): higher percent gain in weight
